Read-outs that look alike come from different tables or passages of the source.
T1: human guanylate cyclase 1 (GC1) (human, UniProt Q02846 52-1103)
T1 sequence (looked up): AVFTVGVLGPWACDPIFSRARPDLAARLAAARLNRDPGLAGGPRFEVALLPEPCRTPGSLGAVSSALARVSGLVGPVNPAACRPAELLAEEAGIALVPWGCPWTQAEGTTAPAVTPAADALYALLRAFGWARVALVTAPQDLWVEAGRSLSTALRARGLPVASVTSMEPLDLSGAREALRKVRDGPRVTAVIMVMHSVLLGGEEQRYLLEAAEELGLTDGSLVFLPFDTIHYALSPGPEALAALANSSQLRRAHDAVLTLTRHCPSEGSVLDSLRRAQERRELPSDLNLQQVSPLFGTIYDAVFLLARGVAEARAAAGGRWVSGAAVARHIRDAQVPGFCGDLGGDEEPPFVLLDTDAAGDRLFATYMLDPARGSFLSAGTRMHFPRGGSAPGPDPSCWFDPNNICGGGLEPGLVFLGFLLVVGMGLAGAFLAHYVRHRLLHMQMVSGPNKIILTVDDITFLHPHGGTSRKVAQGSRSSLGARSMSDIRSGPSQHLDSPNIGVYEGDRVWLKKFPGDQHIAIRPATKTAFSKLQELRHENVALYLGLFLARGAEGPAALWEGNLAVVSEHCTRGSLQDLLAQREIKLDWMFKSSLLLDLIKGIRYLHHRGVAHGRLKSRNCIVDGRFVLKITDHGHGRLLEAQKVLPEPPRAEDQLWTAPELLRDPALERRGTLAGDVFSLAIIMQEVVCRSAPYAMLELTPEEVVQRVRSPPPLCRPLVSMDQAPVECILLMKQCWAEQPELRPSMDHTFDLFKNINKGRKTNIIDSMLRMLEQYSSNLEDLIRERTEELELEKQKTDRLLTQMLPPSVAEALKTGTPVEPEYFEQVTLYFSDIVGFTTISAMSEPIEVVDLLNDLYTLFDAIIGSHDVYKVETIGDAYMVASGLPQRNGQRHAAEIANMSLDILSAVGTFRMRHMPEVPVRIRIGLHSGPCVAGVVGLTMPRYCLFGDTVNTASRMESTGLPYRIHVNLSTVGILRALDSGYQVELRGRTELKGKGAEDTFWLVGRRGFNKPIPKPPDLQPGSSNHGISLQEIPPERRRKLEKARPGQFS

T2: human guanylate cyclase 2 (GC2) (human, UniProt P51841 51-1108)
T2 sequence (looked up): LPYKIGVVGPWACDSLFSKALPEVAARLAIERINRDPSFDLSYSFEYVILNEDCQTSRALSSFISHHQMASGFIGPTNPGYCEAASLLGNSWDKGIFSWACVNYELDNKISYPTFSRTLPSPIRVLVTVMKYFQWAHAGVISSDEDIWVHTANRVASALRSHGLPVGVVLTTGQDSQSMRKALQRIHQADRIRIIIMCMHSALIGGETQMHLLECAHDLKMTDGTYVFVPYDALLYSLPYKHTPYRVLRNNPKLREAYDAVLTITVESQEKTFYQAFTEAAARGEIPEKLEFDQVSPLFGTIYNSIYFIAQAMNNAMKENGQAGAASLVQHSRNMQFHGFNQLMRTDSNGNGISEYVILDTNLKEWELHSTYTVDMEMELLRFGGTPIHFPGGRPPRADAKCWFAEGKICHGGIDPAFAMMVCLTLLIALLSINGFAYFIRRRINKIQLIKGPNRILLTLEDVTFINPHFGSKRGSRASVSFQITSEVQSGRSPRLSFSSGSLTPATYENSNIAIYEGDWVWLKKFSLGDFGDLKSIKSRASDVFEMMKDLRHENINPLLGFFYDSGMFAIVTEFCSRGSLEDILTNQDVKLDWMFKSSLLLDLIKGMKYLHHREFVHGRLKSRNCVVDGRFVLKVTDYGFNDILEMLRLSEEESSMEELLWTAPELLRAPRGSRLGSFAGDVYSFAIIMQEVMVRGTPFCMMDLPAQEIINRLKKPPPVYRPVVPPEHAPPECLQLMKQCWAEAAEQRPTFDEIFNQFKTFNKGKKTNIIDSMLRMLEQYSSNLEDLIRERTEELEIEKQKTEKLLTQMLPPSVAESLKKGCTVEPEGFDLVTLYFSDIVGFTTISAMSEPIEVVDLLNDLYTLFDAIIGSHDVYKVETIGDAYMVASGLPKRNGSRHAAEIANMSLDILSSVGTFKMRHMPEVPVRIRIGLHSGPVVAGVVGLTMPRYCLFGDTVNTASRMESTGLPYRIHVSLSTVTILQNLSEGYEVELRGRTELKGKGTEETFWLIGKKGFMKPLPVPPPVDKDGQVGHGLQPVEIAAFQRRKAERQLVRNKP

B1: wild-type human GCAP1-E6S (guanylate cyclase-activating protein 1, myristoylated) (natural protein)
chain: MGNVMSGKSVEELSSTECHQWYKKFMTECPSGQLTLYEFRQFFGLKNLSPSASQYVEQMFETFDFNKDGYIDFMEYVAALSLVLKGKVEQKLRWYFKLYDVDGNGCIDRDELLTIIQAIRAINPCSDTTMTAEEFTDTVFSKIDVNGDGELSLEEFIEGVQKDQMLLDTLTRSLDLTRIVRRLQNGEQDEEGADEAAEAAG
modifications: myristoylation on the N-terminal Gly residue
B2: GCAP1 N104K-G105R (guanylate cyclase-activating protein 1, myristoylated, on the E6S background) (natural protein, human, UniProt P43080 1-201, looked up)
chain: MGNVMSGKSVEELSSTECHQWYKKFMTECPSGQLTLYEFRQFFGLKNLSPSASQYVEQMFETFDFNKDGYIDFMEYVAALSLVLKGKVEQKLRWYFKLYDVDGKRCIDRDELLTIIQAIRAINPCSDTTMTAEEFTDTVFSKIDVNGDGELSLEEFIEGVQKDQMLLDTLTRSLDLTRIVRRLQNGEQDEEGADEAAEAAG
modifications: myristoylation on the N-terminal Gly residue
notes: cDNA in pET-11a between NdeI and NheI; E6S introduced to allow myristoylation by yeast NMT; N104K and G105R introduced by site-directed mutagenesis; N104K-G105R is the patient's variant; E6S is a change made by people; Myristoylation on the N-terminal Gly implies that the initiator Met is removed (surmised); No tag is mentioned; also called N104K-G105R GCAP1; double mutant; source: E. coli …

Key:
[1] = target: T1, human guanylate cyclase 1 (GC1)
[2] = target: T2, human guanylate cyclase 2 (GC2)
[3] = target: the molecule itself; experiment: SEC; analytical SEC on Superose 12 10/300 GL; 42 µM protein, 200 µl injected; 20 mM Tris-HCl pH 7.5, 150 mM KCl, 1 mM DTT; with 500 µM EGTA + 1 mM Mg2+ or 500 µM Ca2+ + 1 mM Mg2+; apparent molecular mass from a calibration curve
[4] = target: T1, human guanylate cyclase 1 (GC1); experiment: cell-based or functional assay
[5] = target: T2, human guanylate cyclase 2 (GC2); experiment: cell-based or functional assay

Binder | X-fold of Ca2+-dependent regulation of GC1 (cGMP synthesis by HEK293 membranes with 5 µM GCAP1, low Ca2+ <19 nM against high Ca2+ ~30 µM) [1] | X-fold of Ca2+-dependent regulation of GC2 (cGMP synthesis by HEK293 membranes with 5 µM GCAP1, low Ca2+ <19 nM against high Ca2+ ~30 µM) [2] | stoichiometry N [3] | X-fold of Ca2+-dependent regulation of GC1 (cGMP synthesis by HEK293 membranes with 5 µM GCAP1, low Ca2+ <19 nM against high Ca2+ ~30 µM) [4] | X-fold of Ca2+-dependent regulation of GC2 (cGMP synthesis by HEK293 membranes with 5 µM GCAP1, low Ca2+ <19 nM against high Ca2+ ~30 µM) [5]
B1 | 37.4 | 10.8 |  |  | 
B2 |  |  | 2 | 0.47 | 0.6

From PMC8070792, “Impaired Ca^2+ Sensitivity of a Novel GCAP1 Variant Causes Cone Dystrophy and Leads to Abnormal Synaptic Transmission Between Photoreceptors and Bipolar Cells” (International Journal of Molecular Sciences, 2021)
